Here are results for two molecules from patent publication US20220098315A1 (Novartis, published 2022).

Assay [1] addresses recombinant human CD40 (human) (UniProt P25942). As to the kind of experiment: SPR (Biacore T100), antibody captured on Protein A, CD40 antigen as analyte, 25 C, 1:1 model. A general note: SPR reads the build-up and loss of mass on a sensor chip optically.
For assay [2], the target named is human CD40 on cells (human, UniProt P25942 21-277). As to the kind of experiment: cell-based or functional assay.
human CD40 on cells, sequence (P25942 21-277 limits assumed): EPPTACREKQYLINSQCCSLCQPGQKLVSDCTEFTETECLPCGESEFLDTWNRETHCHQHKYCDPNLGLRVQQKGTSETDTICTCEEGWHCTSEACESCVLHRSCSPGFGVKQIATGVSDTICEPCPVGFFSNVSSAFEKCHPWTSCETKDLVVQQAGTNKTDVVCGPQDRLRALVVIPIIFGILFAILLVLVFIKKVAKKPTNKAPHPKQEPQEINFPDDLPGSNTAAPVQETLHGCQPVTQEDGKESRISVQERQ

recombinant human CD40 (human), sequence (P25942 21-193 limits assumed): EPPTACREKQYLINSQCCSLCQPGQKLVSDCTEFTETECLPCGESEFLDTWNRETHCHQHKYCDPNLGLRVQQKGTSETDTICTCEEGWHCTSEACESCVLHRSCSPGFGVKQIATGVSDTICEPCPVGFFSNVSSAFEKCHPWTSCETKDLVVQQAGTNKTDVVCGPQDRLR

By Kd is commonly meant the constant that tells how readily two partners part at equilibrium. One may read the koff as a measure of how fast the partners let go of each other. A word on the kon: it is the second-order rate constant of association. With HCD122 (antibody), in assay [1], the Kd was determined as 467 pM, the dissociation rate constant (koff) was 0.000126 s⁻¹ and the kon is 284000 M⁻¹ s⁻¹.

B1: CFZ533 (antibody, human IgG1, kappa, N297A, V domains shown)
VH: QVQLVESGGGVVQPGRSLRLSCAASGFTFSSYGMHWVRQAPGKGLEWVAVISYEESNRYHADSVKGRFTISRDNSKITLYLQMNSLRTEDTAVYYCARDGGIAAPGPDYWGQGTLVTVSS
VL: DIVMTQSPLSLTVTPGEPASISCRSSQSLLYSNGYNYLDWYLQKPGQSPQVLISLGSNRASGVPDRFSGSGSGTDFTLKISRVEAEDVGVYYCMQARQTPFTFGPGTKVDIRR
As for B1, the “IC50, rCD154-induced proliferation of human PBMCs” value in assay [2] was found to be 120 pM.
